Laboratory results as given in US20080305116A1 (published 2008).

T1: human CD154, soluble antigen (human, UniProt P29965 116-261, limits assumed)
T1 construct: KinExA uses 'soluble antigen'; also called CD40 ligand; CD40L
T1 sequence (looked up): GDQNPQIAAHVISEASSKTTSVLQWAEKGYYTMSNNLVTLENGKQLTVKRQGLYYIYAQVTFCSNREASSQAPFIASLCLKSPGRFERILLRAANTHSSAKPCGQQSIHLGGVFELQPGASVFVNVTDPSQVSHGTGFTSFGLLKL


Experiments:
[1] = molecular target: T1, human CD154, soluble antigen; test: KinExA solution-phase equilibrium, Fab with soluble antigen
[2] = molecular target: T1, human CD154, soluble antigen; test: ELISA-based competitive binding assay; unlabeled Fab against biotin-labeled 5c8 Fab competitor

Kd [1] [nM]	ELISA fold-improvement over wildtype [2] [fold]	Binder
0.307	2.3	5c8 Fab Mutant #1 (heavy chain T30H) (Fab, V domains shown) VH: QVQLVQSGAEVVKPGASVKLSCKASGYIFHSYYMYWVKQAPGQGLEWIGEINPSNGDTNFNEKFKSKATLTVDKSASTAYMELSSLRSEDTAVYYCTRSDGRNDMDSWGQGTLVTVSS VL: DIVLTQSPATLSVSPGERATISCRASQRVSSSTYSYMHWYQQKPGQPPKLLIKYASNLESGVPARFSGSGSGTDFTLTISSVEPEDFATYYCQHSWEIPPTFGGGTKLEIK
0.081	6.3	5c8 Fab Mutant #7 (light chain Q27E) (Fab, V domains shown, also called Gln27Glu) VH: QVQLVQSGAEVVKPGASVKLSCKASGYIFTSYYMYWVKQAPGQGLEWIGEINPSNGDTNFNEKFKSKATLTVDKSASTAYMELSSLRSEDTAVYYCTRSDGRNDMDSWGQGTLVTVSS VL: DIVLTQSPATLSVSPGERATISCRASERVSSSTYSYMHWYQQKPGQPPKLLIKYASNLESGVPARFSGSGSGTDFTLTISSVEPEDFATYYCQHSWEIPPTFGGGTKLEIK
–	0.13	5c8 Fab Mutant #12 (heavy chain N59D) (Fab, V domains shown, also called Asn59Asp) VH: QVQLVQSGAEVVKPGASVKLSCKASGYIFTSYYMYWVKQAPGQGLEWIGEINPSNGDTDFNEKFKSKATLTVDKSASTAYMELSSLRSEDTAVYYCTRSDGRNDMDSWGQGTLVTVSS VL: DIVLTQSPATLSVSPGERATISCRASQRVSSSTYSYMHWYQQKPGQPPKLLIKYASNLESGVPARFSGSGSGTDFTLTISSVEPEDFATYYCQHSWEIPPTFGGGTKLEIK
0.42	–	5c8 Fab Mutant #3 (light chain Y36W) (Fab, V domains shown) VH: QVQLVQSGAEVVKPGASVKLSCKASGYIFTSYYMYWVKQAPGQGLEWIGEINPSNGDTNFNEKFKSKATLTVDKSASTAYMELSSLRSEDTAVYYCTRSDGRNDMDSWGQGTLVTVSS VL: DIVLTQSPATLSVSPGERATISCRASQRVSSSTYSWMHWYQQKPGQPPKLLIKYASNLESGVPARFSGSGSGTDFTLTISSVEPEDFATYYCQHSWEIPPTFGGGTKLEIK
–	0.05	5c8 Fab Mutant #11 (heavy chain Y33F) (Fab, V domains shown) VH: QVQLVQSGAEVVKPGASVKLSCKASGYIFTSYFMYWVKQAPGQGLEWIGEINPSNGDTNFNEKFKSKATLTVDKSASTAYMELSSLRSEDTAVYYCTRSDGRNDMDSWGQGTLVTVSS VL: DIVLTQSPATLSVSPGERATISCRASQRVSSSTYSYMHWYQQKPGQPPKLLIKYASNLESGVPARFSGSGSGTDFTLTISSVEPEDFATYYCQHSWEIPPTFGGGTKLEIK
0.142	2.6	5c8 Fab Mutant #6 (light chain S26D) (Fab, V domains shown, also called Ser26Asp) VH: QVQLVQSGAEVVKPGASVKLSCKASGYIFTSYYMYWVKQAPGQGLEWIGEINPSNGDTNFNEKFKSKATLTVDKSASTAYMELSSLRSEDTAVYYCTRSDGRNDMDSWGQGTLVTVSS VL: DIVLTQSPATLSVSPGERATISCRADQRVSSSTYSYMHWYQQKPGQPPKLLIKYASNLESGVPARFSGSGSGTDFTLTISSVEPEDFATYYCQHSWEIPPTFGGGTKLEIK
0.055	–	5c8 Fab Mutant #22 (heavy T30H/Y33W/S54N; light S26D/Q27E/T33W) (Fab, V domains shown) VH: QVQLVQSGAEVVKPGASVKLSCKASGYIFHSYWMYWVKQAPGQGLEWIGEINPNNGDTNFNEKFKSKATLTVDKSASTAYMELSSLRSEDTAVYYCTRSDGRNDMDSWGQGTLVTVSS VL: DIVLTQSPATLSVSPGERATISCRADERVSSSWYSYMHWYQQKPGQPPKLLIKYASNLESGVPARFSGSGSGTDFTLTISSVEPEDFATYYCQHSWEIPPTFGGGTKLEIK
0.063	–	5c8 Fab Mutant #26 (heavy T30H/S54N; light S26D/Q27E/T33W) (Fab, V domains shown) VH: QVQLVQSGAEVVKPGASVKLSCKASGYIFHSYYMYWVKQAPGQGLEWIGEINPNNGDTNFNEKFKSKATLTVDKSASTAYMELSSLRSEDTAVYYCTRSDGRNDMDSWGQGTLVTVSS VL: DIVLTQSPATLSVSPGERATISCRADERVSSSWYSYMHWYQQKPGQPPKLLIKYASNLESGVPARFSGSGSGTDFTLTISSVEPEDFATYYCQHSWEIPPTFGGGTKLEIK
0.298	2	5c8 Fab Mutant #4 (heavy chain S54N) (Fab, V domains shown) VH: QVQLVQSGAEVVKPGASVKLSCKASGYIFTSYYMYWVKQAPGQGLEWIGEINPNNGDTNFNEKFKSKATLTVDKSASTAYMELSSLRSEDTAVYYCTRSDGRNDMDSWGQGTLVTVSS VL: DIVLTQSPATLSVSPGERATISCRASQRVSSSTYSYMHWYQQKPGQPPKLLIKYASNLESGVPARFSGSGSGTDFTLTISSVEPEDFATYYCQHSWEIPPTFGGGTKLEIK
0.052	–	5c8 Fab Mutant #27 (heavy Y33W/S54N; light S26D/Q27E/T33W) (Fab, V domains shown) VH: QVQLVQSGAEVVKPGASVKLSCKASGYIFTSYWMYWVKQAPGQGLEWIGEINPNNGDTNFNEKFKSKATLTVDKSASTAYMELSSLRSEDTAVYYCTRSDGRNDMDSWGQGTLVTVSS VL: DIVLTQSPATLSVSPGERATISCRADERVSSSWYSYMHWYQQKPGQPPKLLIKYASNLESGVPARFSGSGSGTDFTLTISSVEPEDFATYYCQHSWEIPPTFGGGTKLEIK
0.158	5	5c8 Fab Mutant #5 (light chain T33W) (Fab, V domains shown) VH: QVQLVQSGAEVVKPGASVKLSCKASGYIFTSYYMYWVKQAPGQGLEWIGEINPSNGDTNFNEKFKSKATLTVDKSASTAYMELSSLRSEDTAVYYCTRSDGRNDMDSWGQGTLVTVSS VL: DIVLTQSPATLSVSPGERATISCRASQRVSSSWYSYMHWYQQKPGQPPKLLIKYASNLESGVPARFSGSGSGTDFTLTISSVEPEDFATYYCQHSWEIPPTFGGGTKLEIK
0.065	–	5c8 Fab Mutant #19 (heavy S54N; light S26D/Q27E) (Fab, V domains shown) VH: QVQLVQSGAEVVKPGASVKLSCKASGYIFTSYYMYWVKQAPGQGLEWIGEINPNNGDTNFNEKFKSKATLTVDKSASTAYMELSSLRSEDTAVYYCTRSDGRNDMDSWGQGTLVTVSS VL: DIVLTQSPATLSVSPGERATISCRADERVSSSTYSYMHWYQQKPGQPPKLLIKYASNLESGVPARFSGSGSGTDFTLTISSVEPEDFATYYCQHSWEIPPTFGGGTKLEIK
0.101	–	5c8 Fab Mutant #21 (heavy T30H/Y33W/S54N; light S26D/Q27E) (Fab, V domains shown) VH: QVQLVQSGAEVVKPGASVKLSCKASGYIFHSYWMYWVKQAPGQGLEWIGEINPNNGDTNFNEKFKSKATLTVDKSASTAYMELSSLRSEDTAVYYCTRSDGRNDMDSWGQGTLVTVSS VL: DIVLTQSPATLSVSPGERATISCRADERVSSSTYSYMHWYQQKPGQPPKLLIKYASNLESGVPARFSGSGSGTDFTLTISSVEPEDFATYYCQHSWEIPPTFGGGTKLEIK
0.077	–	5c8 Fab Mutant #28 (heavy Y33W/S54N; light S26D/Q27E) (Fab, V domains shown) VH: QVQLVQSGAEVVKPGASVKLSCKASGYIFTSYWMYWVKQAPGQGLEWIGEINPNNGDTNFNEKFKSKATLTVDKSASTAYMELSSLRSEDTAVYYCTRSDGRNDMDSWGQGTLVTVSS VL: DIVLTQSPATLSVSPGERATISCRADERVSSSTYSYMHWYQQKPGQPPKLLIKYASNLESGVPARFSGSGSGTDFTLTISSVEPEDFATYYCQHSWEIPPTFGGGTKLEIK
–	0.06	5c8 Fab Mutant #10 (light chain Y54E) (Fab, V domains shown, also called Tyr54Glu) VH: QVQLVQSGAEVVKPGASVKLSCKASGYIFTSYYMYWVKQAPGQGLEWIGEINPSNGDTNFNEKFKSKATLTVDKSASTAYMELSSLRSEDTAVYYCTRSDGRNDMDSWGQGTLVTVSS VL: DIVLTQSPATLSVSPGERATISCRASQRVSSSTYSYMHWYQQKPGQPPKLLIKEASNLESGVPARFSGSGSGTDFTLTISSVEPEDFATYYCQHSWEIPPTFGGGTKLEIK
–	0.02	5c8 Fab Mutant #8 (light chain S31V) (Fab, V domains shown) VH: QVQLVQSGAEVVKPGASVKLSCKASGYIFTSYYMYWVKQAPGQGLEWIGEINPSNGDTNFNEKFKSKATLTVDKSASTAYMELSSLRSEDTAVYYCTRSDGRNDMDSWGQGTLVTVSS VL: DIVLTQSPATLSVSPGERATISCRASQRVSVSTYSYMHWYQQKPGQPPKLLIKYASNLESGVPARFSGSGSGTDFTLTISSVEPEDFATYYCQHSWEIPPTFGGGTKLEIK
–	0.22	5c8 Fab Mutant #9 (light chain T33D) (Fab, V domains shown) VH: QVQLVQSGAEVVKPGASVKLSCKASGYIFTSYYMYWVKQAPGQGLEWIGEINPSNGDTNFNEKFKSKATLTVDKSASTAYMELSSLRSEDTAVYYCTRSDGRNDMDSWGQGTLVTVSS VL: DIVLTQSPATLSVSPGERATISCRASQRVSSSDYSYMHWYQQKPGQPPKLLIKYASNLESGVPARFSGSGSGTDFTLTISSVEPEDFATYYCQHSWEIPPTFGGGTKLEIK
0.044	–	5c8 Fab Mutant #20 (heavy S54N; light S26D/Q27E/T33W) (Fab, V domains shown) VH: QVQLVQSGAEVVKPGASVKLSCKASGYIFTSYYMYWVKQAPGQGLEWIGEINPNNGDTNFNEKFKSKATLTVDKSASTAYMELSSLRSEDTAVYYCTRSDGRNDMDSWGQGTLVTVSS VL: DIVLTQSPATLSVSPGERATISCRADERVSSSWYSYMHWYQQKPGQPPKLLIKYASNLESGVPARFSGSGSGTDFTLTISSVEPEDFATYYCQHSWEIPPTFGGGTKLEIK
0.169	7	5c8 Fab Mutant #2 (heavy chain Y33W) (Fab, V domains shown) VH: QVQLVQSGAEVVKPGASVKLSCKASGYIFTSYWMYWVKQAPGQGLEWIGEINPSNGDTNFNEKFKSKATLTVDKSASTAYMELSSLRSEDTAVYYCTRSDGRNDMDSWGQGTLVTVSS VL: DIVLTQSPATLSVSPGERATISCRASQRVSSSTYSYMHWYQQKPGQPPKLLIKYASNLESGVPARFSGSGSGTDFTLTISSVEPEDFATYYCQHSWEIPPTFGGGTKLEIK
–	0.01	5c8 Fab Mutant #13 (heavy chain N59L) (Fab, V domains shown, also called Asn59Leu) VH: QVQLVQSGAEVVKPGASVKLSCKASGYIFTSYYMYWVKQAPGQGLEWIGEINPSNGDTLFNEKFKSKATLTVDKSASTAYMELSSLRSEDTAVYYCTRSDGRNDMDSWGQGTLVTVSS VL: DIVLTQSPATLSVSPGERATISCRASQRVSSSTYSYMHWYQQKPGQPPKLLIKYASNLESGVPARFSGSGSGTDFTLTISSVEPEDFATYYCQHSWEIPPTFGGGTKLEIK
